Assay results taken from PMC11116813, “Bipartite binding interface recruiting HP1 to chromosomal passenger complex at inner centromeres” (The Journal of Cell Biology, 2024).

Assays:
Details in all cases: both partners purified
[1] = molecular target: T1, full-length human HP1α WT (hHP1α), recombinant (human, UniProt P45973 1-191); test: ITC; VP-ITC, 10 μM INCENP peptide or fragment in the cell, 100 μM HP1α full-length or CSD dimer in the syringe, 20°C, 20 mM NaPO4 pH 7.0, 150 mM NaCl, 1 mM DTT (Fig. 2D, Fig. 3D and E); one-site model
T1 construct: heterochromatin protein 1 alpha (HP1α), human, full length; Used as a dimer; The 6His-MBP tag was removed with TEV protease; also called HP1α (full-length, FL); HP1α dimer; source: E. coli BL21 DE3 (pCold), purified (Amylose Resin, TEV cleavage, Ni-NTA flow-through, HiTrap Q)

[2] = molecular target: T1, full-length human HP1α WT (hHP1α), …; test: pull-down; 10 μM full-length hHP1α mixed with 5 μM GST-tagged hINCENP -6His fragments in 20 mM NaPO4 pH 7.0, 150 mM NaCl, 1 mM DTT, 30 min at 4°C; Glutathione Sepharose 4B; CBB staining
[3] = molecular target: T1, full-length human HP1α WT (hHP1α), …; test: ITC; iTC200, full-length HP1α dimer in the cell (60 μM for hINCENP, 80 μM for hSgo1), 600 μM hINCENP or 800 μM hSgo1 fragment in the syringe, 25°C, 20 mM NaPO4 pH 7.0, 150 mM NaCl, 1 mM DTT (Fig. 6A, Fig. S5A); one-site model
[4] = molecular target: T1, full-length human HP1α WT (hHP1α), …; test: ITC; VP-ITC, 10 μM INCENP fragment in the cell, 100 μM HP1α dimer in the syringe, 20°C, 10 mM Tris pH 8.0, 150 mM NaCl, 1 mM DTT (Fig. 2C); one-site model

T1 sequence (P45973 whole entry, the tested form may be a part): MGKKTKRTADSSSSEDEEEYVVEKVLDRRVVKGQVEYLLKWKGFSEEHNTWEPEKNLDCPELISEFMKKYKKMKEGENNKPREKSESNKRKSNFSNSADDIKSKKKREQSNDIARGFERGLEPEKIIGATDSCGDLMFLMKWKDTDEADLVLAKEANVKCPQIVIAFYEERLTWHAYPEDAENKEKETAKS

B1: human INCENP (160-210) -6His, GST removed (domain or fragment, UniProt Q9NQS7 160-210, looked up)
chain: HTQCQLVPVVEIGISERQNAEQHVTQLMSTEPLPRTLSPTPASATAPTSQG
notes: INCENP, human, residues 160-210; Isotope-labelled (15N or 13C/15N) in the NMR experiments and unlabelled in ITC; also called 15N-INCENP (160–210) -6His; 13C/15N-INCENP (160–210) -6His; source: E. coli BL21 Codon Plus (pGEX6P1), purified (Ni-NTA, PreScission cleavage, Glutathione Sepharose flow-through, SEC); for NMR grown in M9 medium with 15N-ammonium chloride with or without 13C-glucose; not …
- binding result [1]: binds

B2: GST-tagged human INCENP (160-210) -6His (domain or fragment, UniProt Q9NQS7 160-210, looked up)
chain: HTQCQLVPVVEIGISERQNAEQHVTQLMSTEPLPRTLSPTPASATAPTSQG
notes: INCENP, human, residues 160-210; also called INCENP fragment 160–210; source: E. coli BL21 Codon Plus (pGEX6P1), purified (non-cleaved version, SEC); not shown: His6, C-terminal, kept
- binding result [2]: binds

B3: human Sgo1 fragment (405-494), Tyr-added, GST removed (domain or fragment)
chain: YAKRALKYTDEKETEGSKPTKTPTTTPPETQQSPHLSLKDITNVSLYPVVKIRRLSLSPKKNKASPAVALPKRRCTASVNYKEPTLASKLR
notes: tyrosine residue inserted after the PreScission site, to determine the concentration; Sgo1 (shugoshin 1), human, residues 405-494, contains the canonical PVI motif; also called Sgo1 fragment containing the PVI motif (residues 405–494); Sgo1 405–494; source: E. coli BL21 Codon Plus (pGEX6P1), purified (Glutathione Sepharose, PreScission cleavage, SEC)
- Kd [3]: ~4 µM

B4: human INCENP (121-270) WT -6His, GST removed (domain or fragment, UniProt Q9NQS7 121-270, looked up)
chain: LRRVTRAAAAAAAATMALAAPSSPTPESPTMLTKKPEDNHTQCQLVPVVEIGISERQNAEQHVTQLMSTEPLPRTLSPTPASATAPTSQGIPTSDEESTPKKSKARILESITVSSLMATPQDPKGQGVGTGRSASKLRIAQVSPGPRDSP
notes: The methods describe no removal of the 6His tag; source: E. coli BL21 Codon Plus (pGEX6P1), purified (Ni-NTA, PreScission cleavage, Glutathione Sepharose flow-through, SEC)
- Kd [4]: 42 nM

B5: human INCENP (121-210) -6His, GST removed (Fig. 2D) (domain or fragment, UniProt Q9NQS7 121-210, looked up)
chain: LRRVTRAAAAAAAATMALAAPSSPTPESPTMLTKKPEDNHTQCQLVPVVEIGISERQNAEQHVTQLMSTEPLPRTLSPTPASATAPTSQG
notes: source: E. coli BL21 Codon Plus (pGEX6P1), purified (Ni-NTA, PreScission cleavage, Glutathione Sepharose flow-through, SEC)
- binding result [1]: binds
